Interaction score data for one molecule are collected here from PMC10397247.

What all share (assay): two-hybrid library CCNG1;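 also: natural log of median RNA to DNA barcode read ratio; higher means stronger binding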
The target in one assay is T1, P12SHb.
T1 chain: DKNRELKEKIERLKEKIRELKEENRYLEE

The next assay has as its target T2, P6SHb.
T2 chain: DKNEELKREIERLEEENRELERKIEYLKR

The target of a further assay is T3, P3SHb.
T3 chain: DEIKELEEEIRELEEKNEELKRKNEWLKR

For the next assay, the target named is T4, P4SHb.
T4 chain: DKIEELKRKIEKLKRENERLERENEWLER

The next assay addresses T5, P7SHb.
T5 chain: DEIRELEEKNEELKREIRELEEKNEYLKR

A further assay concerns the target T6, P2SHb.
T6 chain: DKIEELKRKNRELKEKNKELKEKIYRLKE

For a further assay, the target named is T7, P5SHb.
T7 chain: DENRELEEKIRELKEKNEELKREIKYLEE

A further assay has as its target T8, P8SHb.
T8 chain: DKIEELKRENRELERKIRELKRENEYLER

The next assay concerns the target T9, P1SHb.
T9 chain: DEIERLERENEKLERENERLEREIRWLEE

A further assay concerns the target T10, P9SHb.
T10 chain: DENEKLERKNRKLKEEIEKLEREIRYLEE

Turning to DKNRELKEKIERLKEKIRELKEENRYLEE [P12SHb], the interaction score in the assay with P12SHb was -0.206; with P6SHb, 0.412; with P3SHb, 0.41; in the assay with P4SHb, -0.198; with P7SHb it was -0.593; with P2SHb, -1.12. For the same molecule, the interaction score is 0.0253 in the assay with P5SHb, -0.747 in the assay with P8SHb, -1.47 with P1SHb and 1.48 in the assay with P9SHb.
